Substitutions are numbered along the chain they refer to.
T1: human PAC1 receptor (human, UniProt P41586 21-468)
T1 sequence: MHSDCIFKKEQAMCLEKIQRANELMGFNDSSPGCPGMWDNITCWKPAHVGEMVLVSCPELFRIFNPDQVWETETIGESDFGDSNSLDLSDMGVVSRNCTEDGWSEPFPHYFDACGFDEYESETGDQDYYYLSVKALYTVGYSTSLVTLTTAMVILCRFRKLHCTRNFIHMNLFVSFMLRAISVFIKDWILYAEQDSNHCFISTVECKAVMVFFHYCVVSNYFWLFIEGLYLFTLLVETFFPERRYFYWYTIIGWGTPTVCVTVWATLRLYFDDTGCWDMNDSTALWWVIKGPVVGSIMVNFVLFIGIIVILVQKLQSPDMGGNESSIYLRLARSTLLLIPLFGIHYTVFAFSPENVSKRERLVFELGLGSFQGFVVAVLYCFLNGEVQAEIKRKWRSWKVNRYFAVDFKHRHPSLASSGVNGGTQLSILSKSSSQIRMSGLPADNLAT

B1: iPS:327742 (bispecific antibody, human IgG1, kappa, lambda, N297G)
light 1: EIVLTQSPATLSLSPGERATLSCRASQSVGRSLHWYQQKPGQAPRLLIKYASQSLSGIPARFSGSGSGTDFTLTISSLEPEDFAVYYCHQSSRLPFTFGPGTKVDIKRTVAAPSVFIFPPSDEQLKSGTASVVCLLNNFYPREAKVQWKVDNALQSGNSQESVTEQDSKDSTYSLESTLTLSKADYEKHKVYACEVTHQGLSSPVTKSFNRGEC
heavy 1: not shown
light 2: QSVLTQPPSVSAAPGQKVTISCSGSSSNIGNNYVSWYQQLPGTAPKLLIYDNNKRPSGIPDRFSGSKSGTSATLGITGLQTGDEADYYCGTWDSRLSAVVFGGGTKLTVLGQPKANPTVTLFPPSSEELQANKATLVCLISDFYPGAVTVAWKADGSPVKAGVETTKPSKQSNNKYAAKSYLSLTPEQWKSHRSYSCQVTHEGSTVEKTVAPTECS
heavy 2: QVQLVESGGGVVQPGRSLRLSCAASGFTFSSFGMHWVRQAPGKGLEWVAVISFDGSIKYSVDSVKGRFTISRDNSKNTLFLQMNSLRAEDTAVYYCARDRLNYYESSGYYHYKYYGMAVWGQGTTVTVSSASTKGPSVFPLAPSSKSTSGGTAALGCLVKDYFPEPVTVSWNSGALTSGVHTFPAVLQSSGLYSLESVVTVPSSSLGTQTYICNVNHKPSNTKVDKKVEPKSCDKTHTCPPCPAPELLGGPSVFLFPPKPKDTLMISRTPEVTCVVVDVSHEDPEVKFNWYVDGVEVHNAKTKPCEEQYGSTYRCVSVLTVLHQDWLNGKEYKCKVSNKALPAPIEKTISKAKGQPREPQVYTLPPSRKKMTKNQVSLTCLVKGFYPSDIAVEWESNGQPENNYKTTPPVLKSDGSFFLYSKLTVDKSRWQQGNVFSCSVMHEALHNHYTQKSLSLSPGK
B2: iPS:327878 (bispecific antibody, human IgG1, kappa, lambda, N297G)
light 1: DIQMTQSPSSLSASVGDRITITCRASQSISRYLNWYQQKPGKAPKLLIYAASSLQSGIPSRFSGSGSGTDFTLTINSLQPEDFATYFCQQSYSPPFTFGQGTKVDIKRTVAAPSVFIFPPSDEQLKSGTASVVCLLNNFYPREAKVQWKVDNALQSGNSQESVTEQDSKDSTYSLESTLTLSKADYEKHKVYACEVTHQGLSSPVTKSFNRGEC
heavy 1: not shown
light 2: B1 light 2 with A72T
heavy 2: B1 heavy 2 with K370E
B3: iPS:327872 (bispecific antibody, human IgG1, kappa, N297G)
light 1: B2 light 1
heavy 1: not shown
light 2: EIVLTQSPGTLSLSPGERATLSCRASQSVSSGYLTWYQQKPGQAPRLLIYGASSRATGIPDRFSGSGSGTDFTLTISRLEPEDFAVYYCQQYGNSLSRFGQGTKLEIKRTVAAPSVFIFPPSDEQLKSGTASVVCLLNNFYPREAKVQWKVDNALQSGNSQESVTEQDSKDSTYSLKSTLTLSKADYEKHKVYACEVTHQGLSSPVTKSFNRGEC
heavy 2: not shown
B4: iPS:327879 (bispecific antibody, human IgG1, kappa, lambda, N297G)
light 1: not shown
heavy 1: not shown
light 2: B1 light 2 with A72T
heavy 2: B1 heavy 2 with K370E
B5: iPS:327874 (bispecific antibody, human IgG1, kappa, N297G)
light 1: not shown
heavy 1: not shown
light 2: B3 light 2
heavy 2: not shown
B6: iPS:327880 (bispecific antibody, human IgG1, kappa, lambda, N297G)
light 1: not shown
heavy 1: not shown
light 2: B1 light 2 with A72T, G103K
heavy 2: B1 heavy 2 with G44E, K370E
B7: iPS:327881 (bispecific antibody, human IgG1, kappa, lambda, N297G)
light 1: B2 light 1
heavy 1: not shown
light 2: B1 light 2 with A72T
heavy 2: B1 heavy 2
B8: iPS:327891 (bispecific antibody, human IgG1, kappa, lambda, N297G)
light 1: B2 light 1
heavy 1: not shown
light 2: B1 light 2 with G75A
heavy 2: B1 heavy 2 with E105D
B9: iPS:327882 (bispecific antibody, human IgG1, kappa, lambda, N297G)
light 1: not shown
heavy 1: not shown
light 2: B1 light 2 with A72T
heavy 2: B1 heavy 2
B10: iPS:326666 (bispecific antibody, human IgG2, kappa)
light 1: not shown
heavy 1: QVQLQESGPGLVKPSQTLSLTCTVSGGSISSGGYYWSWIRQHPGKGLEWIGYIYYSGNTYYNPSLKSRVTISGDTSKNQFSLKLRSVTAADTAVYYCTRGGAARGMDVWGQGTTVTVSSASTKGPSVFPLAPCSRSTSESTAALGCLVKDYFPEPVTVSWNSGALTSGVHTFPAVLQSSGLYSLKSVVTVPSSNFGTQTYTCNVDHKPSNTKVDKTVERKCCVECPPCPAPPVAGPSVFLFPPKPKDTLMISRTPEVTCVVVDVSHEDPEVQFNWYVDGVEVHNAKTKPREEQFNSTFRVVSVLTVVHQDWLNGKEYKCKVSNKGLPAPIEKTISKTKGQPREPQVYTLPPSREEMTKNQVSLTCLVDGFYPSDIAVEWESNGQPENNYDTTPPMLDSDGSFFLYSDLTVDKSRWQQGNVFSCSVMHEALHNHYTQKSLSLSPGK
light 2: B3 light 2
heavy 2: QVQLVESGGGVVQPGRSLRLSCAASGFTFSSYGMHWVRQAPGKGLEWVAVIWYDGSNKYYADSVKGRFIISRDKSKNTLYLQMNSLRAEDTAVYYCARAGGIAAAGLYYYYGMDVWGQGTTVTVSSASTKGPSVFPLAPCSRSTSESTAALGCLVKDYFPEPVTVSWNSGALTSGVHTFPAVLQSSGLYSLESVVTVPSSNFGTQTYTCNVDHKPSNTKVDKTVERKCCVECPPCPAPPVAGPSVFLFPPKPKDTLMISRTPEVTCVVVDVSHEDPEVQFNWYVDGVEVHNAKTKPREEQFNSTFRVVSVLTVVHQDWLNGKEYKCKVSNKGLPAPIEKTISKTKGQPREPQVYTLPPSRKKMTKNQVSLTCLVKGFYPSDIAVEWESNGQPENNYKTTPPMLKSDGSFFLYSKLTVDKSRWQQGNVFSCSVMHEALHNHYTQKSLSLSPGK
B11: iPS:327892 (bispecific antibody, human IgG1, kappa, lambda, N297G)
light 1: not shown
heavy 1: not shown
light 2: B1 light 2 with G75A
heavy 2: B1 heavy 2 with E105D

Target: T1, human PAC1 receptor
Test: cell-based or functional assay

Binder	% inhibition of human PAC1 [%]
B1	96
B2	42
B3	40
B4	19
B5	5
B6	15
B7	16
B8	78
B9	13
B10	15
B11	33

Target: human CGRP receptor (human, UniProt Q16602 23-461; O60894 27-148)
Sequence (Q16602 23-461 limits assumed, chain 1 of 2): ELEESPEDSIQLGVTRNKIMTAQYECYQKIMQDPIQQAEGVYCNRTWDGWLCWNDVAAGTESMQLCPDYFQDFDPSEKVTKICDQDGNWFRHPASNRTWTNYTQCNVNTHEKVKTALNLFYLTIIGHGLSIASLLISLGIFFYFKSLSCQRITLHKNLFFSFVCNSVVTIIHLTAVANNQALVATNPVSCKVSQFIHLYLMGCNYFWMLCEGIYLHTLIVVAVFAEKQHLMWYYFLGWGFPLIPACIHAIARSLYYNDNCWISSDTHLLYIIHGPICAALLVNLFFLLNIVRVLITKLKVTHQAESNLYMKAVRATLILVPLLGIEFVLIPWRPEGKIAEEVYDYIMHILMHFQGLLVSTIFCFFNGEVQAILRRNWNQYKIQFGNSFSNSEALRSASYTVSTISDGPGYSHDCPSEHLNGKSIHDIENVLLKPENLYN
Sequence (O60894 27-148 limits assumed, chain 2 of 2): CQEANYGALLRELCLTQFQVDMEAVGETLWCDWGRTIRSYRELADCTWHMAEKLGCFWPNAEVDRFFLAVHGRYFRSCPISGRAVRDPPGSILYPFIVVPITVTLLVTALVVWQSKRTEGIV
Test: cell-based or functional assay

Binder	% inhibition of human CGRPR [%]
B1	84
B2	75
B3	80
B4	81
B5	95
B6	87
B7	76
B8	80
B9	83
B10	74
B11	88

Source: US20170306033A1 (Amgen, published 2017)
